Test results: article PMC3835959 (Cell reports, 2013)
Substitutions are numbered along the chain they refer to. Names may count otherwise.

B1: EscN ATPase, full-length, hexameric (enzyme)
chain: MISEHDSVLEKYPRIQKVLNSTVPALSLNSSTRYEGKIINIGGTIIKARLPKARIGAFYKIEPSQRLAEVIAIDEDEVFLLPFEHVSGMYCGQWLSYQGDEFKIRVGDALLGRLIDGIGRPMESNIVAPYLPFERSLYAEPPDPLLRQVIDQPFILGVRAIDGLLTCGIGQRIGIFAGSGVGKSTLLGMICNGASADIIVLALIGERGREVNEFLALLPQSTLSKCVLVVTTSDRPALERMKAAFTATTIAEYFRDQGKNVLLMMDSVTRYARAARDVGLASGEPDVRGGFPPSVFSSLPKLLERAGPAPKGSITAIYTVLLESDNVNDPIGDEVRSILDGHIVLTRELAEENHFPAIDIGLSASRVMHNVVTSEHLRAAAECKKLIATYKNVELLIRIGEYTMGQDPEADKAIKNRKLIQNFIQQSTKDISSYEKTIESLFKVVA
B2: CesAB–EspA heterodimeric chaperone–substrate complex (complex)
chain 1: MSIVSQTRNKELLDKKIRSEIEAIKKIIAEFDVVKESVNELSEKAKTDPQAAEKLNKLIEGYTYGEERKLYDSALSKIEKLIETLSPARSKSQSTMNQRNRNNRKIV
chain 2: MDTSTTASVASANASTSTSMAYDLGSMSKDDVIDLFNKLGVFQAAILMFAYMYQAQSDLSIAKFADMNEASKESTTAQKMANLVDAKIADVQSSSDKNAKAQLPDEVISYINDPRNDITISGIDNINAQLGAGDLQTVKAAISAKANNLTTTVNNSQLEIQQMSNTLNLLTSARSDMQSLQYRTISGISLGK
B3: CesAB^Y64A/R68A–EspA complex (complex)
chain 1: B2 chain 1 with Y64A, R68A
chain 2: B2 chain 2

What was measured:
[1] = target: the molecule itself
[2] = target: B1; assay: NMR titration

B1 was tested, and the “stoichiometry N” value [1] was 6.

B2 was tested, and the Kd [2] was roughly 3000 nM.

For B3, the Kd [2] was greater than 80000 nM.
